From PMC5056641

Biological target: SRSF1 (ASF/SF2), unphosphorylated (human, UniProt Q07955 1-248)
Assay: filter binding

Sequence of SRSF1 (ASF/SF2), unphosphorylated (Q07955 whole entry): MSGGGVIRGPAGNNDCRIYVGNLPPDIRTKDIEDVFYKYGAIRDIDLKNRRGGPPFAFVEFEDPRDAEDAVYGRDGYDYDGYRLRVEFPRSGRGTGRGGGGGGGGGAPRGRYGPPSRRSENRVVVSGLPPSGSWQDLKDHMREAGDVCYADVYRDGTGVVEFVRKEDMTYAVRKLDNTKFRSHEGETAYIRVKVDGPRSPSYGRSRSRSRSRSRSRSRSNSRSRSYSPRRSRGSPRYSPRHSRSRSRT

AGGCGGAGGAAGC (ssRNA) [Ron ESE 13mer]
apparent K (half saturation): 66 ± 2 nM
